Values joined by “and” are separate entries in the source; they are usually repeats but may differ in a detail not shown here. Identical values can stand only once.
Target: native Ag GA733-2 on colorectal carcinoma cell line SW948 (human) (UniProt P16422)
Assay: cell ELISA on fixed SW948 cells, antibody at 0.93 ug/ml

Sequence of UniProt P16422 (P16422 24-314): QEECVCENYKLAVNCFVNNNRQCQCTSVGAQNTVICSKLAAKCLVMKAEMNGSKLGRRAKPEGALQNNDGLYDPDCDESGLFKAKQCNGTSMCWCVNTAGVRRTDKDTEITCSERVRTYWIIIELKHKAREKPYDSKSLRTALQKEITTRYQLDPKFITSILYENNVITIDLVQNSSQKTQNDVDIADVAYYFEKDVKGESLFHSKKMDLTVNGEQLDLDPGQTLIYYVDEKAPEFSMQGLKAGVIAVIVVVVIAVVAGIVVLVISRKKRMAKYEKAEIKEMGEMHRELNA

## MAb CO17-1A purified from the hybridoma supernatant (antibody)
  absorbance (absorbance (OD)): 0.933 and 0.896

From patent publication US20050138692A1
